Measured values from article PMC12484072 (Frontiers in Microbiology, 2025).
Several values for one entry are separate records, joined by “and”; a condition that tells them apart may be missing. Equal values may be shown once. Bridge positions count the residues as written; N and C are the ends. Square brackets hold non-standard residues; d marks the D form. Ends that are not written are not given here. dOrn = NCCC[C@@H](N)C(=O)O

Target: T1, SaNsrP-ECD, soluble extracellular domain of SaNsrP (S. agalactiae)
T1 construct: also called SaNsrFP ECD
Assay: other fluorescence titration
Settings: both partners purified

ICL[dE]IK[dOrn]I[dF]H[dD]N (lactam 6-C; also: N-terminal thiazoline: Ile1-Cys2 condensed) [bacitracin]
Kd: 259 µM and 304 µM
